# No end group written: not given here.
# B1: Peptide NSPr (reversed nanodisc scaffold peptide, peptidisc scaffold) (peptide)
# peptide: FAEKFKEAVKDYFAKFWDPAAEKLKEAVKDYFAKLWD
# notes: also called NSP (used loosely in some legends and methods); source: synthetic peptide; bought: A+ peptide Co. Ltd. and Genscript (purity >80%)
# B2: FhuA reconstituted in peptidisc (FhuA-NSPr) (complex)
# chain: AVEPKEDTITVTAAPAPQESAWGPAATIAARQSATGTKTDTPIQKVPQSISVVTAEEMALHQPKSVKEALSYTPGVSVGTRGASNTYDHLIIRGFAAEGQSQNNYLNGLKLQGNFYNDAVIDPYMLERAEIMRGPVSVLYGKSSPGGLLNMVSKRPTTEPLKEVQFKAGTDSLFQTGFDFSDSLDDDGVYSYRLTGLARSANAQQKGSEEQRYAIAPAFTWRPDDKTNFTFLSYFQNEPETGYYGWLPKEGTVEPLPNGKRLPTDFNEGAKNNTYSRNEKMVGYSFDHEFNDTFTVRQNLRFAENKTSQNSVYGYGVCSDPANAYSKQCAALAPADKGHYLARKYVVDDEKLQNFSVDTQLQSKFATGDIDHTLLTGVDFMRMRNDINAWFGYDDSVPLLNLYNPVNTDFDFNAKDPANSGPYRILNKQKQTGVYVQDQAQWDKVLVTLGGRYDWADQESLNRVAGTTDKRDDKQFTWRGGVNYLFDNGVTPYFSYSESFEPSSQVGKDGNIFAPSKGKQYEVGVKYVPEDRPIVVTGAVYNLTKTNNLMADPEGSFFSVEGGEIRARGVEIEAKAALSASVNVVGSYTYTDAEYTTDTTYKGNTPAQVPKHMASLWADYTFFDGPLSGLTLGTGGRYTGSSYGDPANSFKVGSYTVVDALVRYDLARVGMAGSNVALHVNNLFDREYVASCFNTYGCFWGAERQVVATATFRF
# peptide: B1 peptide
# notes: also called FhuA-peptidisc; FhuA peptidisc; copies: 1 + 10
# B3: Peptide NSPrbio (NSPr labelled with a biotin group) (peptide)
# peptide: B1 peptide
# modifications: also: biotin group, position not given here
# notes: source: synthetic peptide; bought: KareBay
# Columns and labels:
# Settings in all cases: both partners purified
# [1] = biological target: Photosynthetic bacterial reaction center (BRC) from Rhodobacter sphaeroides, His-tagged (Rhodobacter sphaeroides, UniProt P0C0Y8 1-282; P0C0Y9 1-308; P0C0Y7 1-260); assay: SDS-PAGE densitometry of gel-filtered peptidiscs; peptidiscs made on-column, one more gel filtration to remove free NSPr; 15% SDS-PAGE, Coomassie fluorescence of the NSPr band against a standard curve of NSPr; triplicate gels
# [2] = biological target: T1, MalFGK2 ABC transporter (maltose transporter), His-tagged (UniProt P02916 1-514; P68183 1-296; P68187 1-371); assay: as above
# T1 construct: also called MalGFK2
# Colicin M, His-tagged = biological target: T2, Colicin M, His-tagged (UniProt P05820 1-271); assay: native gel or EMSA; about 2 µg FhuA in peptidisc incubated with TonB23-329 (2 µg) or ColM (5 µg), with or without ferricrocin, 5 min at room temperature; CN-PAGE, Coomassie; free TonB and ColM do not migrate
# T2 construct: colicin M; Construct as in Mills et al., 2014; also called ColM; source: E. coli BW25113, plasmid pMLD189, purified
# T2 sequence: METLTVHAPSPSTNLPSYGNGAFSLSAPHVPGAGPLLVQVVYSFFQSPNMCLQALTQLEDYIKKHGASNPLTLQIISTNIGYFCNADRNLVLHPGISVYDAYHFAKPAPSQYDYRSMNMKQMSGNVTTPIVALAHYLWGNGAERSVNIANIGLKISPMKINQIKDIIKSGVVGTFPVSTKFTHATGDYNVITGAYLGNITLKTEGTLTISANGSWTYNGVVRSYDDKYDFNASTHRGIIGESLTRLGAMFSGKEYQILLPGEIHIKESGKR
# [3] = biological target: T3, FhuA receptor, His-tagged (UniProt P06971 34-747); assay: streptavidin blot quantification of biotinylated peptide in gel-filtered peptidiscs; FhuA reconstituted with NSPrbio; western blot with streptavidin-Alexa 680, against a standard curve
# T3 construct: also called FhuA transporter
# T3 sequence (looked up): B2 chain
# T1 sequence (P02916 whole entry, chain 1 of 3): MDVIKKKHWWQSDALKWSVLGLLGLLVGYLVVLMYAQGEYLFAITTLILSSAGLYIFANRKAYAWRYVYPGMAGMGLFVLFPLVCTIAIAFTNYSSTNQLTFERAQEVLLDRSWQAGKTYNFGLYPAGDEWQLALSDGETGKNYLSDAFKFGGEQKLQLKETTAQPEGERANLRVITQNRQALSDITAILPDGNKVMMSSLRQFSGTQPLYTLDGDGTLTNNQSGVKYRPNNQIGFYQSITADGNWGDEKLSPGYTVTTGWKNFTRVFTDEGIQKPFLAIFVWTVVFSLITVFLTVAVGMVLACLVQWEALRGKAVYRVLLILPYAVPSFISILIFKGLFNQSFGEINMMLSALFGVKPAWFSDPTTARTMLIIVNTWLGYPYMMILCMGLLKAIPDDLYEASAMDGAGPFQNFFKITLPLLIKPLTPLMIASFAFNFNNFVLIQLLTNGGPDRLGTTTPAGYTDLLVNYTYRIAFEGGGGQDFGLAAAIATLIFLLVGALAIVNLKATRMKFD
# T1 sequence (P68183 whole entry, chain 2 of 3): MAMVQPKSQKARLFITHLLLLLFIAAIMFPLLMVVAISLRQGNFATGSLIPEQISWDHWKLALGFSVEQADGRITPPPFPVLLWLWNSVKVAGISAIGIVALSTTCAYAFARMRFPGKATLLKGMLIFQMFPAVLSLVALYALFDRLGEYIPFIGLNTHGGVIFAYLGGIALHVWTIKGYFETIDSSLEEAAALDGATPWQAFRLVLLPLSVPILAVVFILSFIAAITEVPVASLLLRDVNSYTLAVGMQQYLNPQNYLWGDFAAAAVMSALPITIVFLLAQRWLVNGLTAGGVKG
# T1 sequence (P68187 whole entry, chain 3 of 3): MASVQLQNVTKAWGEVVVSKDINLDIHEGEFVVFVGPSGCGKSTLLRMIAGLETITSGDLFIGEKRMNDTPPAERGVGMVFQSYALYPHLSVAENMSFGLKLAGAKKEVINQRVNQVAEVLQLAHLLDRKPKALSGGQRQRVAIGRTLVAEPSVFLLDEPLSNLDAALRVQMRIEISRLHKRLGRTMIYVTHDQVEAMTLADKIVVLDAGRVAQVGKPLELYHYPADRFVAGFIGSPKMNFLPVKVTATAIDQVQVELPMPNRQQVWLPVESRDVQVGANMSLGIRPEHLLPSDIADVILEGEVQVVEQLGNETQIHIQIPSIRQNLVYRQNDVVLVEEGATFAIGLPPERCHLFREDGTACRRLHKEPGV
binder,measurement,setting,value
B1,stoichiometry N,[1],9 NSPr/disc
same,stoichiometry N,[2],10 NSPr/disc
B2,binding result,"Colicin M, His-tagged",binds
B3,stoichiometry N,[3],10 NSPr/disc
